Publication PMC10208982, “Structural basis of catalytic activation in human splicing” (Nature, 2023)

How the values were obtained:
PRP2(137–1022) = target: T1, PRP2(137–1022) (human, UniProt O60231 137-1022); test: SEC; around 30 μg PRP2(137–1022) mixed with a 5-fold excess of cofactor in 100 μl, 1 h on ice; Superdex 200 Increase 10/300 GL; 20 mM HEPES-KOH pH 7.5, 100 mM KCl, 1.5 mM MgCl2, 5% glycerol; fractions analysed by SDS-PAGE; conditions: both partners purified
T1 construct: comprises the modelled NTD (pin, clip, hook) and the helicase core; The tag can be cleaved off with HRV-3C protease; also called recombinant PRP2; source: Sf9 or Hi5 insect cells, purified (Strep-Tactin, then SEC or Q Sepharose); also co-expressed with PPIL4 in Sf9, in lysate; not shown: Twin-StrepII, N-terminal, kept
T1 sequence (looked up): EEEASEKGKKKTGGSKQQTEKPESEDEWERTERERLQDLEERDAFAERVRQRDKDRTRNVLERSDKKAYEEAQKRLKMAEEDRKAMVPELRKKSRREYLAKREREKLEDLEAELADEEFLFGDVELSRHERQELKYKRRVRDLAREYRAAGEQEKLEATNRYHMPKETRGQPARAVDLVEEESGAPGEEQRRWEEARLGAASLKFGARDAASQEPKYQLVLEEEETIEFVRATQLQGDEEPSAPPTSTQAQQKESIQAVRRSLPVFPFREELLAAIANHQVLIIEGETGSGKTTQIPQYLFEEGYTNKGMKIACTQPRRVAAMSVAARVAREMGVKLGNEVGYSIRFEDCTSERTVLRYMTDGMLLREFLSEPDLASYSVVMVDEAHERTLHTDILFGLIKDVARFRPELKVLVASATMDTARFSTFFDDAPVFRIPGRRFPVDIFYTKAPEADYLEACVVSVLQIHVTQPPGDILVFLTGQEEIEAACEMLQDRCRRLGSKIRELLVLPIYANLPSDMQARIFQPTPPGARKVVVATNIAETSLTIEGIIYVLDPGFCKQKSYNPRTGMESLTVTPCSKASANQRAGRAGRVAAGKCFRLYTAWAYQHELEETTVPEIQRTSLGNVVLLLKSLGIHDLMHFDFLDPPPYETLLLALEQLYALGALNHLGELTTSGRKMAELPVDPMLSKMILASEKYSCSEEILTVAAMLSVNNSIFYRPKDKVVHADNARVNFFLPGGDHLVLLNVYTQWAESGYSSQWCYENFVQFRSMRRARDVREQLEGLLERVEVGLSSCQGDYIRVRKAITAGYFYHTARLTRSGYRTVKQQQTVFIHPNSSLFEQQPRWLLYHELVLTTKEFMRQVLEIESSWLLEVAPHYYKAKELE

PRP2 (DHX16) 137-1022 = target: T2, PRP2 (DHX16) 137-1022 (Homo sapiens, UniProt O60231 137-1022); test: EMSA; 2 mM Mg2+; EMSA: 50 nM RNA, 0.1-8 uM protein, 20 mM HEPES-KOH pH 7.5, 50 mM KCl, 2 mM MgCl2, 0.1 mg/ml BSA, 5% glycerol, 30 min room temperature; 5% native gel in Tris-glycine; conditions: protein: recombinant; tags: N-terminal Twin-StrepII; label: Cy5 at 3' end of S3; 18 bp duplex, 3' overhang 30 nt on S4
T2 sequence: T1 sequence (looked up)

GPKOW = target: T3, GPKOW (Homo sapiens, UniProt Q92917 1-476); test: as above; conditions: protein: recombinant; tags: N-terminal Twin-StrepII; label: Cy5 at 3' end of S3; 18 bp duplex, 3' overhang 30 nt on S4
T3 sequence: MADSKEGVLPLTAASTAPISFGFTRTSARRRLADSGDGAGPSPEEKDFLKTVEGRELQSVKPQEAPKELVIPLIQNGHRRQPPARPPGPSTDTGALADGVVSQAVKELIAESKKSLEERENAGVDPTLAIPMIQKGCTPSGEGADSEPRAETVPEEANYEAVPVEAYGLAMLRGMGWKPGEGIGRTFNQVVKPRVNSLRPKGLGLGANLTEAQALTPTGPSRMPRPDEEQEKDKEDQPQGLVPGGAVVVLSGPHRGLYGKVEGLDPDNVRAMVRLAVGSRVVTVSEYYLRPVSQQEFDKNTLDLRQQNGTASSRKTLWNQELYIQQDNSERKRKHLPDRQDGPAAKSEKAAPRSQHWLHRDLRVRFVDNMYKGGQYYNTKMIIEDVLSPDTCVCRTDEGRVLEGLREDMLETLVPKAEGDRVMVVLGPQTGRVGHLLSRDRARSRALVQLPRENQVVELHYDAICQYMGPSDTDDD

PPIL4 = target: T4, PPIL4 (Homo sapiens, UniProt Q8WUA2 1-492); test: EMSA; no PRP2; 2 mM Mg2+; EMSA: 50 nM RNA, 0.1-8 uM protein, 20 mM HEPES-KOH pH 7.5, 50 mM KCl, 2 mM MgCl2, 0.1 mg/ml BSA, 5% glycerol, 30 min room temperature; 5% native gel in Tris-glycine; conditions: protein: recombinant; tags: untagged (Twin-StrepII removed by HRV-3C); label: Cy5 at 3' end of S3; 18 bp duplex, 3' overhang 30 nt on S4
T4 sequence: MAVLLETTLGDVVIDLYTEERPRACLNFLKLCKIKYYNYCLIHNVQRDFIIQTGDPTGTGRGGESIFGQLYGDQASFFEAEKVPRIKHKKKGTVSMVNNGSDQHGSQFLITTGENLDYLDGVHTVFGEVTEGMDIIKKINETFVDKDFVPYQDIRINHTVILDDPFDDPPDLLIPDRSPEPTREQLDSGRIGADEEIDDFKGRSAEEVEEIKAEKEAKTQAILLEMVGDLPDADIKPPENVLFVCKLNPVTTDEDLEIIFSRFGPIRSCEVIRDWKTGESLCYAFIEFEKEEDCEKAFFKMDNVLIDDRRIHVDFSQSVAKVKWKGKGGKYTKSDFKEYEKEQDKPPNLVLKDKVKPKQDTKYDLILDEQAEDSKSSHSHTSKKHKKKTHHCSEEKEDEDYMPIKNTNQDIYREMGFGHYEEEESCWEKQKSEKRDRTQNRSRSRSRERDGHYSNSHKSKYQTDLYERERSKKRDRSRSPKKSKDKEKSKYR

[1] = target: T5, PRP2 (DHX16) 137-1022;GPKOW (Homo sapiens;Homo sapiens, UniProt O60231;Q92917 137-1022;1-476, |); test: EMSA; complex assembled in vitro; 2 mM Mg2+; EMSA: 50 nM RNA, 0.1-8 uM protein, 20 mM HEPES-KOH pH 7.5, 50 mM KCl, 2 mM MgCl2, 0.1 mg/ml BSA, 5% glycerol, 30 min room temperature; 5% native gel in Tris-glycine; conditions: protein: recombinant;recombinant; tags: N-terminal Twin-StrepII;N-terminal Twin-StrepII; copies: 1;1; label: Cy5 at 3' end of S3; 18 bp duplex, 3' overhang 30 nt on S4
T5 sequence 1: T1 sequence (looked up)
T5 sequence 2: T3 sequence

[2] = target: T6, PRP2 (DHX16) 137-1022;PPIL4 (Homo sapiens;Homo sapiens, UniProt O60231;Q8WUA2 137-1022;1-492, |); test: EMSA; purified co-expressed complex; 2 mM Mg2+; EMSA: 50 nM RNA, 0.1-8 uM protein, 20 mM HEPES-KOH pH 7.5, 50 mM KCl, 2 mM MgCl2, 0.1 mg/ml BSA, 5% glycerol, 30 min room temperature; 5% native gel in Tris-glycine; conditions: protein: recombinant;recombinant; tags: N-terminal Twin-StrepII;untagged (Twin-StrepII removed by HRV-3C); copies: 1;1; label: Cy5 at 3' end of S3; 18 bp duplex, 3' overhang 30 nt on S4
T6 sequence 1: T1 sequence (looked up)
T6 sequence 2: T4 sequence

Measured: binding result

B1: GPKOW (natural protein, human, UniProt Q92917 1-476, looked up)
chain: T3 sequence
notes: human GPKOW, codon-optimized synthetic gene (GeneArt); also called PRP2 cofactor GPKOW; source: Sf9 or Hi5 insect cells, purified (Strep-Tactin, SEC); not shown: Twin-StrepII, N-terminal, kept
binds: PRP2(137–1022)

B2: Cy5 RNA duplex with 30-nt 3' overhang (dsRNA)
RNA 1: GCGCCUACGGAGCUGGUGGCGUAGGCGCAAAAAAAAAAAAAAAAAAAA
RNA 2: CACCAGCUCCGUAGGCGC
not listed: PRP2(137–1022)
binds: all other assays above
